Test results as given in paper PMC6374102 (Science Advances, 2019).

What was measured:
[1] = In vitro release of LENK from NPs / bioconjugate stability in serum; format: in vitro ADME; conditions: diluted male SWISS mouse serum (30% in 5% dextrose), 37°C; RP-HPLC, UV 257 nm
[2] = system: λ-carrageenan–induced inflammatory pain injected rats; assay: Hargreaves thermal nociception test in λ-carrageenan-induced paw edema model; format: in vivo; conditions: LENK-SQ NPs 20 mg/kg i.v.; morphine 1 mg/kg; rat

## CC(C)=CCC/C(C)=C/CC/C(C)=C/CC/C=C(\C)CC/C=C(\C)CCC(=O)OCOC(=O)C(CC(C)C)NC(=O)C(Cc1ccccc1)NC(=O)CNC(=O)CNC(=O)C(N)Cc1ccc(O)cc1 (centres unmarked) [LENK-SQ-Diox, Leu-enkephalin-squalene with dioxycarbonyl linker]
[1]
  Time that the released LENK peptide still lasted in serum: over 10 hours
[2]
  AUC of PWL time course, comparison between treatments: significantly higher AUC than morphine and LENK-SQ-Am NPs
